PMC6959990
Blank lines part the entries; values can stand above or below the substance they belong to.

Columns and labels:
[1] = molecular target: PCAT1(C21A) (Clostridium thermocellum) (UniProt A3DCU1); assay: native MS; in 200 mM ammonium acetate pH 7.5 with 0.058% UDM (2X CMC); 4 µM PCAT1 monomer alone, or 4 µM PCAT1(C21A) monomer + 8 µM CtA (two-fold excess of CtA); abundances corrected for gas-phase dissociation
[2] = molecular target: PCAT1(C21A) (Clostridium thermocellum) (UniProt A3DCU1); assay: cryo-EM structure; PCAT1(C21A) (5 mg/ml, 62 µM monomer) mixed with 62 µM refolded CtA, 30 min on ice, in UDM, no ATP
[3] = molecular target: PCAT1(C21A) (Clostridium thermocellum) (UniProt A3DCU1); assay: native MS; in 200 mM ammonium acetate pH 7.5 with 0.5% C8E4 (2X CMC); 4 µM PCAT1 monomer alone, or 4 µM PCAT1(C21A) monomer + 8 µM CtA (two-fold excess of CtA); abundances corrected for gas-phase dissociation
[4] = molecular target: wt PCAT1 (Clostridium thermocellum) (UniProt A3DCU1); assay: native MS; in 200 mM ammonium acetate pH 7.5 with 0.058% UDM (2X CMC); 4 µM PCAT1 monomer alone, or 4 µM PCAT1(C21A) monomer + 8 µM CtA (two-fold excess of CtA); abundances corrected for gas-phase dissociation
[5] = molecular target: wt PCAT1 (Clostridium thermocellum) (UniProt A3DCU1); assay: native MS; in 200 mM ammonium acetate pH 7.5 with 0.5% C8E4 (2X CMC); 4 µM PCAT1 monomer alone, or 4 µM PCAT1(C21A) monomer + 8 µM CtA (two-fold excess of CtA); abundances corrected for gas-phase dissociation

% abundance of the C21A-PCAT1 dimer + 1 CtA complex [1]: 25% | % abundance of the C21A-PCAT1 dimer + 2 CtA complex [1]: 75% | stoichiometry N (CtA per PCAT1 dimer) [1]: 2 | stoichiometry N (CtA per PCAT1 transporter) [2]: 2 | % abundance of the C21A-PCAT1 dimer + 1 CtA complex [3]: 16% | % abundance of the C21A-PCAT1 dimer + 2 CtA complex [3]: 84% | stoichiometry N (CtA per PCAT1 dimer) [3]: 2
Substance: CtA (natural protein)

stoichiometry N [4]: 2 | stoichiometry N [5]: 2
Substance: wt PCAT1 (from UniProt A3DCU1 1-727) (natural protein)

stoichiometry N [1]: 2 | stoichiometry N [3]: 2
Substance: PCAT1(C21A) (from UniProt A3DCU1 1-727) (natural protein)
